According to patent US20150335669A1 (SAMSUNG ELECTRONICS, published 2015):

B1: PEG-introduced antibody L3-1Y/IgG2 with 30 kDa polyethyleneglycol (antibody, V domains shown)
VH: EVQLVESGGGLVQPGGSLRLSCAASGFTFTDYYMSWVRQAPGKGLEWLGFIRNKANGYTTEYSASVKGRFTISRDNSKNTLYLQMNSLRAEDTAVYYCARDNWFAYWGQGTLVTVSS
VL: DIQMTQSPSSLSASVGDRVTITCKSSQSLLASGNQNNYLAWYQQKPGKAPKMLIIWASTRVSGVPSRFSGSGSGTDFTLTISSLQPEDFATYYCQQSYSRPYTFGQGTKVEIKR
modifications: see heavy chain: the PEG may stand at the N-terminus of a light chain instead; 30 kDa methoxypolyethyleneglycol at the N-terminus of the antibody (N-terminus of a heavy chain or of a light chain; which one is not resolved); mono-PEG per paragraph 213
notes: also called 30kPEG Ab; mono-PEG antibody (30 kDa)
B2: PEG-introduced antibody L3-1Y/IgG2 with 10 kDa polyethyleneglycol (antibody, V domains shown)
VH: B1 VH
VL: B1 VL
modifications: see heavy chain: the PEG may stand at the N-terminus of a light chain instead; 10 kDa methoxypolyethyleneglycol at the N-terminus of the antibody (N-terminus of a heavy chain or of a light chain; which one is not resolved); mono-PEG per paragraph 213
notes: also called 10kPEG Ab; mono-PEG antibody (10 kDa)
B3: anti-c-Met antibody L3-1Y-IgG2 (huAbF46-H4-A1 (IgG2 Fc)) (antibody, V domains shown)
VH: B1 VH
VL: B1 VL
notes: also called antibody with no PEG
B4: PEG-introduced antibody L3-1Y/IgG2 with 20 kDa polyethyleneglycol (antibody, V domains shown)
VH: B1 VH
VL: B1 VL
modifications: see heavy chain: the PEG may stand at the N-terminus of a light chain instead; 20 kDa methoxypolyethyleneglycol at the N-terminus of the antibody (N-terminus of a heavy chain or of a light chain; which one is not resolved); mono-PEG per paragraph 213
notes: also called 20kPEG Ab; mono-PEG antibody (20 kDa)
B5: AbF46, mouse monoclonal antibody to c-Met (hybridoma KCLRF-BP-00220) (antibody, V domains shown)
VH: EVKLVESGGGLVQPGGSLRLSCATSGFTFTDYYMSWVRQPPGKALEWLGFIRNKANGYTTEYSASVKGRFTISRDNSQSILYLQMDTLRAEDSATYYCARDNWFAYWGQGTLVTVSA
VL: DILMTQSPSSLTVSAGEKVTMSCKSSQSLLASGNQNNYLAWHQQKPGRSPKMLIIWASTRVSGVPDRFIGSGSGTDFTLTINSVQAEDLAVYYCQQSYSAPLTFGAGTKLELK
notes: Tested as hybridoma culture supernatant in the selection ELISA; also called mouse antibody AbF46

Key:
[1] = target: T1, human c-Met/Fc fusion protein (R&D Systems) (human, UniProt P08581 25-932); assay: SPR, Biacore T100; antibody captured by human Fab binder on CM5 chip, c-Met-Fc injected
T1 construct: Bought reagent; treated here as the same reagent; also called c-Met-Fc (#358-MT/CF, R&D Systems); human c-Met/Fc protein; not shown: Fc part of the bought fusion protein
Protocol: To confirm whether the prepared PEG-introduced antibodies containing PEG with various molecular weights can maintain the binding affinity to the antigen, the binding affinity of the prepared PEG-introduced antibodies to c-Met was measured using Biacore T100(GE) and compared with that of an antibody with no PEG (Ab).
In particular, human Fab binder (GE Healthcare) was fixed on a surface of CM5 chip (#BR-1005-30, GE) according to the manufacturer's manual. About 90 to 120 Ru of each of the PEG-introduced antibodies was captured, and c-Met-Fc (#358-MT/CF, R&D Systems) was injected at various concentrations into the captured PEG-introduced antibody. 10 mM Glycine-HCl (pH 1.5) solution was injected thereto to regenerate the surface. In order to measure affinity, the data obtained from this experiment was fitted using BIAevaluation software (GE Healthcare, Biacore T100 evaluation software).

[2] = target: T1, human c-Met/Fc fusion protein (R&D …); assay: ELISA, human c-Met/Fc fusion protein coated on the plate, hybridoma culture supernatant
Protocol: The hybridoma cell culture obtained in Reference Example 1.1.2 was added in an amount of 50 μL to each well of the plates and incubated for 1 hour. The cells remaining unreacted were washed out with a sufficient amount of Tris-buffered saline and Tween 20 (TBST). Goat anti-mouse IgG-horseradish peroxidase (HRP) was added to the plates and incubated for 1 hour at room temperature. The plates were washed with a sufficient amount of TBST, followed by reacting the peroxidase with a substrate (OPD). Absorbance at 450 nm was measured on an ELISA reader.

T1 sequence (P08581 25-932 limits assumed): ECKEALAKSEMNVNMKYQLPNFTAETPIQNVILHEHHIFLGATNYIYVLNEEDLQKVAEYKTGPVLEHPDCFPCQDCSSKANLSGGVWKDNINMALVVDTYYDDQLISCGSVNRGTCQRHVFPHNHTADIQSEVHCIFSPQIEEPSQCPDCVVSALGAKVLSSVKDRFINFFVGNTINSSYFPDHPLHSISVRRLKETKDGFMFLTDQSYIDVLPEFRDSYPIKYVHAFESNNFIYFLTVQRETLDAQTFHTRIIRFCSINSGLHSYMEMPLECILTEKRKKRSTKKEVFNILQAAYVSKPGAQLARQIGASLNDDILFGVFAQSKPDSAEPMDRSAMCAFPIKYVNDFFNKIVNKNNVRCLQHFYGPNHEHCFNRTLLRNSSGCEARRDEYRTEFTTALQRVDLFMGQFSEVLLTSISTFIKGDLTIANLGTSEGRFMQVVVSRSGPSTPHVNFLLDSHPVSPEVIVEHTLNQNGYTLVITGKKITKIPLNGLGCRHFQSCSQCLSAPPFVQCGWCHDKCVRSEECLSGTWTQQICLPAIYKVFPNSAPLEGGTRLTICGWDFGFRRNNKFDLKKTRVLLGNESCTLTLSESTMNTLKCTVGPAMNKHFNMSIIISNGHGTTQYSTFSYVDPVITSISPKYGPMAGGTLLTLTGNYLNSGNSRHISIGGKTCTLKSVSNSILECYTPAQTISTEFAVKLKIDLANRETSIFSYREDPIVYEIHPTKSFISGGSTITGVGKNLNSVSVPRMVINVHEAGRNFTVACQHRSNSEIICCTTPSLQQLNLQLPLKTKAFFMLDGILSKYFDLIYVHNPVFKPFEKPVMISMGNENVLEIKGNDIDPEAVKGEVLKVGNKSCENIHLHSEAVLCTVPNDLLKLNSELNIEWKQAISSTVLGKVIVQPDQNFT

Row | Binder | Kd [1] [nM] | binding result [2]
1 | B1 | 0.0619 | 
2 | B2 | 0.0859 | 
3 | B3 | 0.0823 | 
4 | B4 | 0.0729 | 
5 | B5 |  | binds
